US20230181729A1 (IMMATICS BIOTECHNOLOGIES, published 2023)
Each block holds one binder with its values, some of them ahead of it.

Molecular target: HLA-A*02/PRAME-004 presented on cells (PRAME-004-loaded T2 cells or PRAME-004-positive tumor cell lines) (human)
Test: cell-based or functional assay

EC50 of IFNγ release by CD8+ T cells re-expressing the TCR; T2 cells loaded with PRAME-004 (10 µM to 10 pM): 1.83 nM
B1: TCR R17P1D7 (TCR, V domains shown)
V domain 1: QTVTQSQPEMSVQEAETVTLSCTYDTSESDYYLFWYKQPPSRQMILVIRQEAYKQQNATENRFSVNFQKAAKSFSLKISDSQLGDAAMYFCAYRWAQGGSEKLVFGKGTKLTVNP
V domain 2: DIYQTPRYLVIGTGKKITLECSQTMGHDKMYWYQQDPGMELHLIHYSYGVNSTEKGDLSSESTVSRIRTEHFPLTLESARPSHTSQYLCATELWSSGGTGELFFGEGSRLTVLE

EC50 of IFNγ release by CD8+ T cells re-expressing the TCR; T2 cells loaded with PRAME-004 (10 µM to 10 pM): ~1 µM
B2: TCR R16P1E8 (TCR, V domains shown)
V domain 1: QKEVEQDPGPLSVPEGAIVSLNCTYSNSAFQYFMWYRQYSRKGPELLMYTYSSGNKEDGRFTAQVDKSSKYISLFIRDSQPSDSATYLCAMSEAAGNKLTFGGGTRVLVKP
V domain 2: EAGVAQSPRYKIIEKRQSVAFWCNPISGHATLYWYQQILGQGPKLLIQFQNNGVVDDSQLPKDRFSAERLKGVDSTLKIQPAKLEDSAVYLCASSYTNQGEAFFGQGTRLTVVE
